Laboratory results taken from patent publication US20240270821A1, “GIP/GLP1/GCG TRI-RECEPTOR AGONISTS AND USES THEREOF” (priority 2023, published 2024).
Changes are numbered by the printed parent chain.

T1: human GIP receptor (human) (UniProt P48546)
T1 sequence (looked up): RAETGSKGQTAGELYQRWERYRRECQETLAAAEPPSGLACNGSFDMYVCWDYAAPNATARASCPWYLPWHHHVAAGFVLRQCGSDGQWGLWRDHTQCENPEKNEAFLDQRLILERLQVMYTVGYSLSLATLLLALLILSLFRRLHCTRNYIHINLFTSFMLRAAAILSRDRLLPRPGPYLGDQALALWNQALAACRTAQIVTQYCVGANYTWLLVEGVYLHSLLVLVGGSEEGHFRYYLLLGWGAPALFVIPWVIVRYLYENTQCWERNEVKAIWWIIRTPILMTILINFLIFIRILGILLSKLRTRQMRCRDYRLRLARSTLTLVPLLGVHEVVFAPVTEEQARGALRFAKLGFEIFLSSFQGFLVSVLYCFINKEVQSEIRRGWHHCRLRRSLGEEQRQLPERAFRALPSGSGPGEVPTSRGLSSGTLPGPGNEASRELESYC

B1: Example 1193 (peptide)
chain: YXQGTXTSDXXIXLDXKAQXEFIEXLIEGGPPSXEPPPXGE
modifications: non-natural residues (Aib, αMeF(2F), 4Pal, Orn, Me4Pal); lipidated Lys; C-amide; synthetic construct; SITE 2: note = 2-Aminoisobutyric Acid; SITE 6: note = alpha-methyl-2-fluoro-L-phenylalanine; SITE 10: note = 3-(4-Pyridyl)-L-alanine; SITE 11: note = alpha-methyl-L-serine; SITE 13: note = alpha-methyl-leucine; SITE 16: note = L-ornithine; SITE 17: note = Lysine is chemically mo
B2: Example 1194 (peptide)
chain: B1 chain with E35X, X39E
modifications: non-natural residues; lipidated Lys; C-terminal amide; synthetic construct; SITE 2: note = 2-Aminoisobutyric Acid; SITE 6: note = alpha-methyl-2-fluoro-L-phenylalanine; SITE 10: note = 3-(4-Pyridyl)-L-alanine; SITE 11: note = alpha-methyl-L-serine; SITE 13: note = alpha-methyl-leucine; SITE 16: note = L-ornithine; SITE 17: note = Lysine is chemically mo
B3: Example 1195 (peptide)
chain: B1 chain with E35X
modifications: non-natural residues; acylated Lys; C-terminal amide; synthetic construct; SITE 2: note = 2-Aminoisobutyric Acid; SITE 6: note = alpha-methyl-2-fluoro-L-phenylalanine; SITE 10: note = 3-(4-Pyridyl)-L-alanine; SITE 11: note = alpha-methyl-L-serine; SITE 13: note = alpha-methyl-leucine; SITE 16: note = L-ornithine; SITE 17: note = Lysine is chemically mo
B4: Example 1196 (peptide)
chain: B1 chain with E35X, G40S
modifications: non-natural residues; lipidated Lys AEEA-γGlu-C18 diacid; C-term amide; synthetic construct; SITE 2: note = 2-Aminoisobutyric Acid; SITE 6: note = alpha-methyl-2-fluoro-L-phenylalanine; SITE 10: note = 3-(4-Pyridyl)-L-alanine; SITE 11: note = alpha-methyl-L-serine; SITE 13: note = alpha-methyl-leucine; SITE 16: note = L-ornithine; SITE 17: note = Lysine is chemically mo
B5: Example 1197 (peptide)
chain: YXQGTXTSDXXIXLDXKAQXEFIEXLIEGGPPSXXPPPXGGGE
modifications: Lys acylated AEEA-γGlu-C18 diacid; non-natural residues; C-amide; synthetic construct; SITE 2: note = 2-Aminoisobutyric Acid; SITE 6: note = alpha-methyl-2-fluoro-L-phenylalanine; SITE 10: note = 3-(4-Pyridyl)-L-alanine; SITE 11: note = alpha-methyl-L-serine; SITE 13: note = alpha-methyl-leucine; SITE 16: note = L-ornithine; SITE 17: note = Lysine is chemically mo
B6: Example 1198 (peptide)
chain: YXQGTXTSDXXIXLDXKAQXEFIEXLIEGGPPSXXPPPSGSE
modifications: non-natural residues; lysine acylated AEEA-γGlu-C18 diacid; C-terminal amide; synthetic construct; SITE 2: note = 2-Aminoisobutyric Acid; SITE 6: note = alpha-methyl-2-fluoro-L-phenylalanine; SITE 10: note = 3-(4-Pyridyl)-L-alanine; SITE 11: note = alpha-methyl-L-serine; SITE 13: note = alpha-methyl-leucine; SITE 16: note = L-ornithine; SITE 17: note = Lysine is chemically mo
B7: Example 1199 (peptide)
chain: B5 chain with X39S
modifications: Lys acylated with AEEA-γGlu-C18 diacid; non-natural residues; C-amide; synthetic construct; SITE 2: note = 2-Aminoisobutyric Acid; SITE 6: note = alpha-methyl-2-fluoro-L-phenylalanine; SITE 10: note = 3-(4-Pyridyl)-L-alanine; SITE 11: note = alpha-methyl-L-serine; SITE 13: note = alpha-methyl-leucine; SITE 16: note = L-ornithine; SITE 17: note = Lysine is chemically mo
B8: Example 1200 (peptide)
chain: B6 chain with X35E
modifications: non-natural residues, acylated Lys (AEEA-γGlu-C18 diacid), C-terminal amide; synthetic construct; SITE 2: note = 2-Aminoisobutyric Acid; SITE 6: note = alpha-methyl-2-fluoro-L-phenylalanine; SITE 10: note = 3-(4-Pyridyl)-L-alanine; SITE 11: note = alpha-methyl-L-serine; SITE 13: note = alpha-methyl-leucine; SITE 16: note = L-ornithine; SITE 17: note = Lysine is chemically mo
B9: Example 1201 (peptide)
chain: B5 chain with X35E, X39S
modifications: non-natural residues; acylated Lys; C-terminal amide; synthetic construct; SITE 2: note = 2-Aminoisobutyric Acid; SITE 6: note = alpha-methyl-2-fluoro-L-phenylalanine; SITE 10: note = 3-(4-Pyridyl)-L-alanine; SITE 11: note = alpha-methyl-L-serine; SITE 13: note = alpha-methyl-leucine; SITE 16: note = L-ornithine; SITE 17: note = Lysine is chemically mo
B10: Example 1202 (peptide)
chain: YXQGTXTSDXXIXLDXKAQXEFIQXLIEGGPSSGAPPPSGS
modifications: synthetic construct; SITE 2: note = 2-Aminoisobutyric Acid; SITE 6: note = alpha-methyl-2-fluoro-L-phenylalanine; SITE 10: note = 3-(4-Pyridyl)-L-alanine; SITE 11: note = alpha-methyl-L-serine; SITE 13: note = alpha-methyl-leucine; SITE 16: note = L-ornithine; SITE 17: note = Lysine is chemically mo
B11: Example 1203 (peptide)
chain: B10 chain with G4A, Q24E
modifications: synthetic construct; SITE 2: note = 2-Aminoisobutyric Acid; SITE 4: note = D-amino acid; SITE 6: note = alpha-methyl-2-fluoro-L-phenylalanine; SITE 10: note = 3-(4-Pyridyl)-L-alanine; SITE 11: note = alpha-methyl-L-serine; SITE 13: note = alpha-methyl-leucine; SITE 16: note = L-ornithine; SITE 17: n
B12: Example 1204 (peptide)
chain: B10 chain with G4A, Q24E, I27V
modifications: synthetic construct; SITE 2: note = 2-Aminoisobutyric Acid; SITE 4: note = D-amino acid; SITE 6: note = alpha-methyl-2-fluoro-L-phenylalanine; SITE 10: note = 3-(4-Pyridyl)-L-alanine; SITE 11: note = alpha-methyl-L-serine; SITE 13: note = alpha-methyl-leucine; SITE 16: note = L-ornithine; SITE 17: n
B13: Example 1208 (peptide)
chain: B10 chain with Q24E, A35E
modifications: not fully specified; synthetic construct; SITE 2: note = 2-Aminoisobutyric Acid; SITE 6: note = alpha-methyl-2-fluoro-L-phenylalanine; SITE 10: note = 3-(4-Pyridyl)-L-alanine; SITE 11: note = alpha-methyl-L-serine; SITE 13: note = alpha-methyl-leucine; SITE 16: note = L-ornithine; SITE 17: note = Lysine is chemically mo

Each binder was assayed against hGLP-1R (Homo sapiens, UniProt P43220) (assay: cell-based or functional assay).
Sequence of hGLP-1R (P43220 24-463): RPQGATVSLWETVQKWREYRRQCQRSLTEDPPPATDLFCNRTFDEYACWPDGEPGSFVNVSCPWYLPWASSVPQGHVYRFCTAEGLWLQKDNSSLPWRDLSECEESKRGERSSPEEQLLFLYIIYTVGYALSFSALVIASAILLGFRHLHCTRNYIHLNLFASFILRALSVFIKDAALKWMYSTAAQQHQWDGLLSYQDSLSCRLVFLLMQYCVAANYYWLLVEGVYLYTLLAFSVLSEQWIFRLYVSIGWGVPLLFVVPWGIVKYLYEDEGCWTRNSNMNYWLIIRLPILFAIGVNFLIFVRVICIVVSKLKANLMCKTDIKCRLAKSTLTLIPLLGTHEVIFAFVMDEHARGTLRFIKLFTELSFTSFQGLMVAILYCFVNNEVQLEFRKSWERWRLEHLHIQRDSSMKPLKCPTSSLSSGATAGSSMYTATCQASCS

Binder | Relative cAMP EC50 [nM] | cAMP Rel EC50 (in the presence of 1% HSA) [nM] | cAMP Rel EC50 (1% HSA) [nM]
B1 | 0.544 | 66.2 | –
B2 | 0.51 | 57.4 | –
B3 | 0.367 | 44.2 | –
B4 | 0.418 | 45.4 | –
B5 | 0.407 | 46.1 | –
B6 | 0.475 | 61 | –
B7 | 0.5 | 63.9 | –
B8 | 0.727 | 91.4 | –
B9 | 0.888 | 93.9 | –
B10 | 0.237 | – | 23.1
B11 | 0.292 | – | 38.9
B12 | 0.338 | – | 37.4
B13 | 0.526 | – | 44.8

Each binder was assayed against T1, human GIP receptor (human) (assay: cell-based or functional assay).

Binder | Relative cAMP EC50 [nM] | cAMP Rel EC50 (in the presence of 1% HSA) [nM] | cAMP Rel EC50 (1% HSA) [nM]
B1 | 0.00897 | 0.803 | –
B2 | 0.00725 | 0.759 | –
B3 | 0.00708 | 0.637 | –
B4 | 0.00756 | 0.605 | –
B5 | 0.00666 | 0.639 | –
B6 | 0.00663 | 0.67 | –
B7 | 0.0076 | 0.733 | –
B8 | 0.00883 | 0.896 | –
B9 | 0.00959 | 1.02 | –
B10 | 0.00635 | – | 0.471
B11 | 0.0774 | – | 8.5
B12 | 0.21 | – | 15.8
B13 | 0.00907 | – | 0.786

Each binder was assayed against human glucagon receptor (human) (UniProt P47871) (assay: cell-based or functional assay).
Sequence of human glucagon receptor (human) (P47871 26-477): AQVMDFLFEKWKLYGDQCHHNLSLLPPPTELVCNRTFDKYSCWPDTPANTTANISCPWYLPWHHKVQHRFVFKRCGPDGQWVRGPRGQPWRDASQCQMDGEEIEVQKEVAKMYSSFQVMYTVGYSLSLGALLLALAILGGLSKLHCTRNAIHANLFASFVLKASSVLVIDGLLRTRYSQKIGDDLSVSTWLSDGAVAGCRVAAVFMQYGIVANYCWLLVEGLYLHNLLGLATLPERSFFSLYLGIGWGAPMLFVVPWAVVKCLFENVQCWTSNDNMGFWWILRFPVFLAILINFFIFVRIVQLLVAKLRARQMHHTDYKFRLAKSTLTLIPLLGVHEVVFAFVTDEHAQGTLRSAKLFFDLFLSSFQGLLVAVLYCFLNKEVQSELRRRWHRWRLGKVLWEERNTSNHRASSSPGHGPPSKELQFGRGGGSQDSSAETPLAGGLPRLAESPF

Binder | Relative cAMP EC50 [nM] | cAMP Rel EC50 (in the presence of 1% HSA) [nM] | cAMP Rel EC50 (1% HSA) [nM]
B1 | 1.56 | 202 | –
B2 | 2.02 | 215 | –
B3 | 1.74 | 242 | –
B4 | 1.9 | 257 | –
B5 | 1.88 | 288 | –
B6 | 1.8 | 314 | –
B7 | 2.05 | 352 | –
B8 | 1.5 | 278 | –
B9 | 1.76 | 234 | –
B10 | 0.5 | – | 70.3
B11 | 2.58 | – | 436
B12 | 3.5 | – | 507
B13 | 3.52 | – | 451
